Read-outs that look alike come from different tables or passages of the source.
Experiments:
[1] = molecular target: T1, murine CD27-FcHis fusion protein (murine, UniProt P41272 24-182); assay: SPR
T1 chain: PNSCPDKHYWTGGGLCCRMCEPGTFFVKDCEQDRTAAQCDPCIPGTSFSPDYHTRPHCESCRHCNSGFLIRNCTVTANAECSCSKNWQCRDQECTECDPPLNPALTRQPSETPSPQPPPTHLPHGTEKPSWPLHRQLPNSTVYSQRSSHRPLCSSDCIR

[2] = molecular target: T2, rhesus monkey CD27-Fc protein (rhesus monkey); assay: BLI
T2 chain: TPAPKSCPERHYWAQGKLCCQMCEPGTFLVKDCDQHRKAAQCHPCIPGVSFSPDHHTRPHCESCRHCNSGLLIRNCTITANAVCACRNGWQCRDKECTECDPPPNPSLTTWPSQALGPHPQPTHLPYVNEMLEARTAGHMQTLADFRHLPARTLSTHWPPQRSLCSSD

human CD27-His = assay: SPR
[3] = molecular target: T3, murine CD27 expressed on the cell surface of transfected HEK293 cells (murine, UniProt P41272 24-250); assay: flow cytometry
T3 chain: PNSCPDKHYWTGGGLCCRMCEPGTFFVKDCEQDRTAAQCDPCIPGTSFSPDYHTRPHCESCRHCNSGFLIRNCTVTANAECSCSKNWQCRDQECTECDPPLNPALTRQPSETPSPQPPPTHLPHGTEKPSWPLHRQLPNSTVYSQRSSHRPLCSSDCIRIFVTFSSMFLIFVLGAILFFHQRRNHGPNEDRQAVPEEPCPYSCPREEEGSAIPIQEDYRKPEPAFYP

[4] = molecular target: T4, human CD27 expressed on the cell surface of transfected HEK293 cells (human, UniProt P26842 20-260); assay: flow cytometry
[5] = molecular target: T5, human CD27-HisFc fusion protein (human, UniProt P26842 20-192); assay: BLI
T5 chain: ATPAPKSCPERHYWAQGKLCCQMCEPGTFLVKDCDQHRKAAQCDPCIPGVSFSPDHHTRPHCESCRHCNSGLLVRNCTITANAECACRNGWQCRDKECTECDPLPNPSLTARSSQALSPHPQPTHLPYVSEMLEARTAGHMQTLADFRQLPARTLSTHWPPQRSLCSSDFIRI

[6] = molecular target: T3, murine CD27 expressed on the cell …; assay: flow cytometry
[7] = molecular target: T4, human CD27 expressed on the cell …; assay: flow cytometry; remark: listed apart in the source

B1: anti-CD27 antibody mAb077 (IgG1 form) (antibody, V domains shown)
VH: EVQLVESGGGLVQPGGSLRLSCAASGFTFSGYGIHWVRQAPGKGLEWIGWINPNRGSTKYAQKFQGRVTISRDNSKNTLYLQLNSLRAEDTAVYYCARDPGYTWYFDVWGQGTLVTVSS
VL: DIQLTQSPSSLSASVGDRVTITCRASQDISSDLAWYQQKPGKAPKLLIYAASTLQSGVPSRFSGSGSGTDFTLTISSLQPEDFATYYCQQRDAWPPTFGQGTKVEIK
- Kd [1]: 0.0304 nM
- Kd [2]: 0.562 nM

B2: mAb076-IgG (antibody, V domains shown)
VH: EVQLVESGGGLVQPGGSLRLSCAASGFTFSDYGIHWVRQAPGKGLEWIGWINPNRGSTNYAQKFQGRVTISRDNSKNTLYLQLNSLRAEDTAVYYCARDYGYTWYFDVWGQGTLVTVSS
VL: DIQLTQSPSSLSASVGDRVTITCRASQDISSVLAWYQQKPGKAPKLLIYAASSLQSGVPSRFSGSGSGTDFTLTISSLQPEDFATYYCQQRDAWPLTFGQGTKVEIK
- Kd (human CD27-His): 0.332 nM

B3: anti-CD27 antibody mAb076 (IgG1 form) (antibody, V domains shown)
VH: EVQLVESGGGLVQPGGSLRLSCAASGFTFSDYGIHWVRQAPGKGLEWIGWINPNRGSTNYAQKFQGRVTISRDNSKNTLYLQLNSLRAEDTAVYYCARDYGYTWYFDVWGQGTLVTVSS
VL: DIQLTQSPSSLSASVGDRVTITCRASQDISSVLAWYQQKPGKAPKLLIYAASSLQSGVPSRFSGSGSGTDFTLTISSLQPEDFATYYCQQRDAWPLTFGQGTKVEIK
- Kd [1]: 0.0754 nM
- Kd [2]: < 0.001 nM
- Kd [3]: 0.3 nM
- Kd [4]: 0.16 nM

B4: mAb077-IgG (antibody, V domains shown)
VH: EVQLVESGGGLVQPGGSLRLSCAASGFTFSGYGIHWVRQAPGKGLEWIGWINPNRGSTKYAQKFQGRVTISRDNSKNTLYLQLNSLRAEDTAVYYCARDPGYTWYFDVWGQGTLVTVSS
VL: DIQLTQSPSSLSASVGDRVTITCRASQDISSDLAWYQQKPGKAPKLLIYAASTLQSGVPSRFSGSGSGTDFTLTISSLQPEDFATYYCQQRDAWPPTFGQGTKVEIK
- Kd (human CD27-His): 0.137 nM

B5: mAb076 antibody Fab fragment with C-terminal histidine tag (Fab, V domains shown)
VH: EVQLVESGGGLVQPGGSLRLSCAASGFTFSDYGIHWVRQAPGKGLEWIGWINPNRGSTNYAQKFQGRVTISRDNSKNTLYLQLNSLRAEDTAVYYCARDYGYTWYFDVWGQGTLVTVSS
VL: DIQLTQSPSSLSASVGDRVTITCRASQDISSVLAWYQQKPGKAPKLLIYAASSLQSGVPSRFSGSGSGTDFTLTISSLQPEDFATYYCQQRDAWPLTFGQGTKVEIK
- Kd [5]: 1.61 nM

B6: mAb077 antibody Fab fragment with C-terminal histidine tag (Fab, V domains shown)
VH: EVQLVESGGGLVQPGGSLRLSCAASGFTFSGYGIHWVRQAPGKGLEWIGWINPNRGSTKYAQKFQGRVTISRDNSKNTLYLQLNSLRAEDTAVYYCARDPGYTWYFDVWGQGTLVTVSS
VL: DIQLTQSPSSLSASVGDRVTITCRASQDISSDLAWYQQKPGKAPKLLIYAASTLQSGVPSRFSGSGSGTDFTLTISSLQPEDFATYYCQQRDAWPPTFGQGTKVEIK
- Kd [5]: 4.08 nM

B7: 1F5-IgG (antibody, V domains shown)
VH: QVQLVESGGGVVQPGRSLRLSCAASGFTFSSYDMHWVRQAPGKGLEWVAVIWYDGSNKYYADSVKGRFTISRDNSKNTLYLQMNSLRAEDTAVYYCARGSGNWGFFDYWGQGTLVTVSS
VL: DIQMTQSPSSLSASVGDRVTITCRASQGISRWLAWYQQKPEKAPKSLIYAASSLQSGVPSRFSGSGSGTDFTLTISSLQPEDFATYYCQQYNTYPRTFGQGTKVEIK
- Kd (human CD27-His): 1.39 nM

B8: reference antibody 1F5 (antibody, V domains shown)
VH: QVQLVESGGGVVQPGRSLRLSCAASGFTFSSYDMHWVRQAPGKGLEWVAVIWYDGSNKYYADSVKGRFTISRDNSKNTLYLQMNSLRAEDTAVYYCARGSGNWGFFDYWGQGTLVTVSS
VL: DIQMTQSPSSLSASVGDRVTITCRASQGISRWLAWYQQKPEKAPKSLIYAASSLQSGVPSRFSGSGSGTDFTLTISSLQPEDFATYYCQQYNTYPRTFGQGTKVEIK
- Kd [2]: 2.13 nM
- Kd [6]: 31 nM
- Kd [7]: 0.56 nM

From patent publication US20190225698A1 (published 2019)
